Source: the supplement of paper PMC10126150
± gives the standard deviation of the averaged measurements.

Test system: ATP
Experiment: switch fluorescence ratio, 500 uM ATP over buffer (Cy3 cluster intensity, sum of 5 cycles each) (fold (ratio)); higher = stronger signal-on switching upon ATP binding; sequences stand for … in TCGTCGGCAGCGTCAGATGTGTATAAGAGACAGTTTTTTTTTTTTTTTTTTTTTTTTT…TC
Conditions: aptamer strand: ATP DNA aptamer (quencher-CACCTGGGGGAGTATTGCGGAGGAAGG + anchor), 100 nM annealed; ATP concentration: 500 uM
Outline: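 Per cluster, summed Cy3 intensity from the target cycles was divided by that from the buffer cycles to give the fluorescence ratio, then averaged per switch-domain sequence. Clusters outside 100-1000 RFU were excluded. The Cy3-labelled switching-strand clusters, on a modified Illumina MiSeq flow-cell, were annealed to 100 nM quencher-labelled ATP aptamer and imaged in selection buffer, then after 15 min with 500 uM ATP at 22 °C, for five cycles with NaOH stripping and re-annealing between them.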
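Note: ATP exposure 15 min at 22 °C before imaging.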

Row | Sequence | switch fluorescence ratio
1 | TCTTTTGGTT | 1.011 ± 0.0051
2 | GCGGGACTGT | 1.04 ± 0.046
3 | ATTGATTAAC | 1.013 ± 0.0043
4 | AGGTGAGGGG | 0.99 ± 0.022
5 | CGATATAGGC | 0.959 ± 0.018
6 | GGGTTAAGAG | 1.01 ± 0.02
7 | GGGCACTTTG | 1.0204 ± 0.00091
8 | TTGTCGTCTC | 0.986 ± 0.041
9 | AGGTTTAGGG | 1.03 ± 0.034
10 | CTTGGGCGGA | 1.027 ± 0.008
11 | AAAGCTTTGA | 0.983 ± 0.01
12 | TTGGGATTCG | 1.01 ± 0.013
13 | TAAAGTTTTG | 0.995 ± 0.017
14 | GGGTCTTGAT | 0.9675 ± 0.0047
15 | GTAGGTAGCG | 0.984 ± 0.031
16 | GGGCAAGTTA | 1.009 ± 0.007
17 | AAATTAGTG | 1.05 ± 0.059
18 | CAGGGAGAAT | 1.01 ± 0.019
19 | ACTTGTAATG | 0.989 ± 0.049
20 | TACAGGTGCA | 1.81 ± 0.022
21 | AATTTTAGCC | 0.987 ± 0.011
22 | GTTGAATATG | 1.01 ± 0.029
23 | ATTCGGGGTG | 1.05 ± 0.11
24 | TATGAGATCG | 1.03 ± 0.069
25 | ATAAGGTTCC | 1.091 ± 0.005

Row | Sequence | switch fluorescence ratio
26 | CTAGGGTAAT | 0.9675 ± 0.0036
27 | TTGGTATTGA | 0.99 ± 0.098
28 | TCTTGAAGGT | 0.985 ± 0.0053
29 | GAAGGTACGG | 1.04 ± 0.061
30 | CGGGGTCGGT | 0.963 ± 0.021
31 | TGATTTTACG | 0.983 ± 0.019
32 | AGCAGGGGTT | 1 ± 0.053
33 | ACTAGAGCCA | 0.982 ± 0.011
34 | TTTAGTCTGC | 0.993 ± 0.018
35 | GTGGTGAGTG | 0.97 ± 0.021
36 | CGAATTTAAG | 1.009 ± 0.0062
37 | ATGATTTTAG | 1 ± 0.031
38 | TGAGATCACT | 1 ± 0.013
39 | TTACATAAGG | 1.006 ± 0.0048
40 | AGGAGGAAAG | 0.987 ± 0.028
41 | ATTATTGTGT | 0.9903 ± 0.0075
42 | GTATCAGGCC | 0.992 ± 0.01
43 | ATGCCTGTGT | 0.977 ± 0.012
44 | GCCCACCACA | 1.08 ± 0.028
45 | CCCGAGCCTC | 1.36 ± 0.1
46 | ATGTGTGGT | 0.959 ± 0.023
47 | AAGGAGGCAA | 1.255 ± 0.0085
48 | CGCGGGTTGG | 1.02 ± 0.017
49 | GGTTTGGAGA | 1.024 ± 0.0091
50 | GCTTAACGCT | 0.999 ± 0.019

Row | Sequence | switch fluorescence ratio
51 | GCTTTGGGGC | 1.01 ± 0.02
52 | TTATTGTGTG | 1 ± 0.023
53 | GAATTGGTTG | 1 ± 0.04
54 | ATTGAATATT | 0.9935 ± 0.0015
55 | CTCGCAGGCT | 1.25 ± 0.037
56 | AGTGGGGTTT | 0.976 ± 0.013
57 | TCTTTCCGGT | 1.14 ± 0.23
58 | TCTGTGAGGT | 1.034 ± 0.0072
59 | GGGAAAAAGC | 0.993 ± 0.04
60 | TAGGGGGCGC | 1.02 ± 0.039
61 | GGGTTCCGGG | 1.02 ± 0.021
62 | CGACGACTGG | 1.01 ± 0.017
63 | AAGGGTGCTT | 1.018 ± 0.006
64 | ATGGGGTATT | 0.989 ± 0.015
65 | CTATTTCCTT | 0.975 ± 0.031
66 | TAGTTGAGAA | 0.9851 ± 0.0075
67 | GCATCTGTAG | 1 ± 0.067
68 | GAACTGTTTT | 0.987 ± 0.018
69 | TATCGGGTGT | 1.11 ± 0.092
70 | GGACGAATGG | 1.02 ± 0.013
71 | GGTTGGCATG | 0.952 ± 0.03
72 | AATGGAAATC | 1.003 ± 0.0086
73 | GTATCGTACG | 0.984 ± 0.014
74 | CCGTCGTACG | 1.06 ± 0.11
75 | TACTATACGT | 1.276 ± 0.007

Row | Sequence | switch fluorescence ratio
76 | GGGCCAAGGG | 1.01 ± 0.022
77 | TACACTGGCG | 1.05 ± 0.057
78 | TGCATTATTA | 0.995 ± 0.049
79 | TTACAAGGGT | 0.973 ± 0.023
80 | GTTTACTTAT | 1.037 ± 0.0024
81 | AAAGGATGG | 0.997 ± 0.036
82 | CGTTTGGCGG | 0.987 ± 0.064
83 | TTGGCAGATG | 1 ± 0.043
84 | GTTACTGTGG | 0.9663 ± 0.005
85 | AGGTAGTATT | 1.04 ± 0.012
86 | GAGTAGAAAG | 0.9989 ± 0.0061
87 | GGAGGCATAT | 1.13 ± 0.039
88 | TTGGTCTTGA | 0.994 ± 0.018
89 | GTTTAAGCGG | 0.969 ± 0.034
90 | TTTTAGTGGG | 1.01 ± 0.039
91 | CGTTATGAGG | 0.991 ± 0.011
92 | AAAATGAAGA | 0.993 ± 0.026
93 | GGGTTGCCAG | 0.997 ± 0.025
94 | CTCGGGAGAA | 1.016 ± 0.0039
95 | TTAAGGAGGT | 1.03 ± 0.099
96 | TAACGGGGGG | 0.999 ± 0.045
97 | ACCTATGAGG | 1.02 ± 0.029
98 | CCACGTCAAC | 1.59 ± 0.052
99 | TGGGGTGGGG | 1.05 ± 0.09
100 | GTAGCCTGGT | 0.989 ± 0.041

Row | Sequence | switch fluorescence ratio
101 | ACGGGGTCGG | 1.01 ± 0.044
102 | TAAATCGGGG | 0.995 ± 0.049
103 | AGAGCGCGCC | 1.02 ± 0.05
104 | TTGTTAAGTG | 1.02 ± 0.1
105 | CATAAAGGAG | 1.01 ± 0.016
106 | AAATCGCATG | 1.03 ± 0.019
107 | TCTGGTTGGG | 1.04 ± 0.064
108 | GCGTTGGGCT | 0.949 ± 0.016
109 | GAGGGTTGCG | 0.973 ± 0.011
110 | GGGCGGGGAT | 1.01 ± 0.018
111 | TCATGTTTCG | 1 ± 0.031
112 | CCGTAGAGGG | 1.38 ± 0.043
113 | ACAGTGCGCG | 1.03 ± 0.083
114 | TATTAGGGAC | 0.994 ± 0.032
115 | TTCTATTATA | 0.977 ± 0.018
116 | AGGGGAGGGC | 0.998 ± 0.042
117 | ATTTGACGTT | 1.003 ± 0.006
118 | AGAGTACGTA | 1.041 ± 0.0065
119 | AGTGTCACGA | 1.01 ± 0.015
120 | CATGGCCTTA | 0.972 ± 0.0097
121 | TCCGGAATGG | 4.16 ± 0.47
122 | AACCCGGGAA | 0.995 ± 0.042
123 | CAAGTAAGCG | 1.003 ± 0.0011
124 | CGATCAAAAC | 1.26 ± 0.31
125 | TGGTGAAAGC | 0.991 ± 0.022

Row | Sequence | switch fluorescence ratio
126 | AGGTGATTCT | 1.04 ± 0.025
127 | ACTGGGGCCA | 0.972 ± 0.047
128 | TGTTGATTTT | 1.03 ± 0.043
129 | GCAGTAAATA | 1.009 ± 0.0086
130 | AGAATGCACG | 0.957 ± 0.035
131 | TAAATGAGGT | 0.998 ± 0.015
132 | ATGGCTAGAA | 0.985 ± 0.026
133 | AATTCATGTA | 0.9886 ± 0.0064
134 | TGGTGGGACG | 1.06 ± 0.14
135 | TTTTCGTTCG | 1.01 ± 0.059
136 | TTTAGCTGGT | 0.986 ± 0.033
137 | GTTTCGCAGG | 1.01 ± 0.015
138 | TTGAACACGG | 1.02 ± 0.034
139 | TATTCGCTTT | 1.33 ± 0.48
140 | TAGGCTGGGT | 0.992 ± 0.014
141 | GGCAGGGGGC | 1.02 ± 0.031
142 | CAGTGGGGGG | 1.01 ± 0.039
143 | TGAGGCAGCT | 1.06 ± 0.11
144 | TGGTAGATGG | 1 ± 0.022
145 | CTAGGTTCGC | 1.01 ± 0.012
146 | TTGGGGCATG | 0.971 ± 0.011
147 | CTTATAGGGG | 1 ± 0.035
148 | CGGTGTGACA | 0.993 ± 0.051
149 | ATAGGACTGA | 1.03 ± 0.023
150 | TACGGCAGGG | 1.059 ± 0.0024

Row | Sequence | switch fluorescence ratio
151 | TTTGGGCTAT | 1.021 ± 0.0064
152 | GCGTATGTAT | 1.002 ± 0.0068
153 | GTTGGGAGCA | 1.004 ± 0.0072
154 | GGCCGATATG | 0.996 ± 0.015
155 | GGGTTATGAG | 0.977 ± 0.06
156 | TAGGTTTTTC | 1.02 ± 0.078
157 | GTGGTCCGGG | 0.979 ± 0.037
158 | ATTAATGGGA | 0.9986 ± 0.0061
159 | TTACTTTGAA | 1.01 ± 0.029
160 | AATCGGGGGA | 1.01 ± 0.048
161 | AAGGGTTCGG | 1.03 ± 0.026
162 | TAGGGAAAGT | 0.9607 ± 0.0022
163 | TGGCGCCCGT | 1.08 ± 0.11
164 | GAGTAATGAG | 0.984 ± 0.068
165 | TGCTTACAAA | 1.01 ± 0.027
166 | ACTAATGTAT | 1 ± 0.014
167 | TCCGTTGTGG | 0.991 ± 0.037
168 | TTAGCCCTCA | 0.981 ± 0.014
169 | TGGGAAGAGA | 1.02 ± 0.018
170 | AGTTGAATT | 1.03 ± 0.046
171 | ATTTCATCGT | 1.03 ± 0.012
172 | CATTAGGGGG | 1.04 ± 0.037
173 | GCGAGACCAG | 1.64 ± 0.051
174 | GGGCGGGGGC | 1.02 ± 0.056
175 | AGGGCCCTCG | 0.9898 ± 0.0036

Row | Sequence | switch fluorescence ratio
176 | ATATGTCGGT | 0.963 ± 0.013
177 | CAAAAACGTT | 1.02 ± 0.024
178 | TTAAAGTGGT | 0.9789 ± 0.00047
179 | ATTACCAGGT | 1.27 ± 0.048
180 | CCAATGCTGT | 1.115 ± 0.0091
181 | GCCGTTAACG | 0.969 ± 0.028
182 | TTGGGGCTAG | 1.02 ± 0.026
183 | GGGTATAACA | 1.004 ± 0.0083
184 | CAGTCGGGTT | 1.03 ± 0.079
185 | ATTCCTCTAG | 1.318 ± 0.0041
186 | TGGGGATTTG | 0.99 ± 0.032
187 | CTTGGGCCGC | 1.13 ± 0.048
188 | GATGCGTCAC | 1.06 ± 0.056
189 | TTCGGGGAGG | 1.02 ± 0.019
190 | GGTTTTGCGG | 0.997 ± 0.029
191 | CGGTGAAGAA | 0.989 ± 0.013
192 | GGGGGGTCCT | 1 ± 0.018
193 | GTAGGGATAG | 1.02 ± 0.057
194 | TTTATATATT | 1.01 ± 0.028
195 | GTCCTCGCAT | 4.8 ± 0.54
196 | TTTACTTCTC | 1.02 ± 0.032
197 | ACTAAAAAGA | 1.07 ± 0.056
198 | AATTAGTGTT | 0.99 ± 0.02
199 | GCATTAAGAC | 1.23 ± 0.091
200 | GATGTGAGGC | 1.14 ± 0.046
